Where a chain is given by its changes, count along the chain named.
B1: H1H29089P (antibody, V domains shown)
VH: EVQLVQSGAEVKKPGESLKISCKGSGYSFTSYWIVWVRQMPGKGLEWMGIIYPGDSDTRYSPSFQGQVTISADKSISTAYLQWSSLKASDTAMYYCARQDITGTTGFDYWGQGTLVTVSS
VL: DIQMTQSPSSLSASVGDRVTITCRASQSIRNYLNWYQQKPGKAPKLLIYAASSLQSGVPSRFSGSGSGTDFTLTISSLQPEDFATYFCQQSYSTPFTFGPGTKVDIKR
B2: H1H29127P (antibody, V domains shown)
VH: QVQLVESGGGVVQPGRSLRLSCAASGFTFSSYGMHWVRQAPGKGLEWVAAIWYDGSNKYYADSVKGRFTISRDNSKNTLYLQMNSLRAEDTAVYFCARGEHYYGSGPFDPWGQGTLVTVSS
VL: B1 VL with R30S, Y49F, F87Y, T94S, F96L, P100G, D105E
B3: H1H29147P2 (antibody, V domains shown)
VH: QVQLVQSGAEVKNPGSSVKVSCKASGGTFSSYTINWVRQAPGQGLEWMGGIIPLYGTANYAQKFQARVTISTDESTNTAYMELSNLRFEDTAVYFCASTLELRAFDAFDIWGQGTMVTVSS
VL: not shown
B4: H1H29100P (antibody, V domains shown)
VH: QLQLQESGPGLVKPSETLSLTCTVSGGSISSSSYYWGWIRQPPGKGLEWIGIIYYSGSTYYNPSLKSRVTISVDTSKNQFSLKLSSVTAADTAVYYCARQDREALFDYWGQGTLVTVSS
VL: EIVLTQSPDFQSVTPKEKVTITCRASQRIGSSLHWYQQKPDQSPKLLIKYASQSFSGVPSRFSGSGSGTDFTLTINSLEAEDAATYYCHQSSTLPTFGQGTRLEIKR
B5: H1H29187P2 (antibody, V domains shown)
VH: QVQLVESGGGVVQPGRFLRLSCAASGFTFSNSGMHWVRQAPGKGLEWVAGIWHDGSYKYYVDSVKGRFTISRDNSKNTLFLQMNSLRAEDTAVYYCARDDYYASGTSVDVWGQGTTVTVSS
VL: not shown

How the values were obtained:
Test in all cases: cell-based or functional assay
[1] = molecular target: PfRH5 from Plasmodium falciparum strain D10 (Plasmodium falciparum)
[2] = molecular target: PfRH5 from Plasmodium falciparum strain RF7 (Plasmodium falciparum)
[3] = molecular target: T1, PfRH5 from Plasmodium falciparum strain FCR-1/FVO (Plasmodium falciparum)
[4] = molecular target: T2, PfRH5 from Plasmodium falciparum strain 3D7 (Plasmodium falciparum, UniProt Q8IFM5 25-526)
T2 sequence: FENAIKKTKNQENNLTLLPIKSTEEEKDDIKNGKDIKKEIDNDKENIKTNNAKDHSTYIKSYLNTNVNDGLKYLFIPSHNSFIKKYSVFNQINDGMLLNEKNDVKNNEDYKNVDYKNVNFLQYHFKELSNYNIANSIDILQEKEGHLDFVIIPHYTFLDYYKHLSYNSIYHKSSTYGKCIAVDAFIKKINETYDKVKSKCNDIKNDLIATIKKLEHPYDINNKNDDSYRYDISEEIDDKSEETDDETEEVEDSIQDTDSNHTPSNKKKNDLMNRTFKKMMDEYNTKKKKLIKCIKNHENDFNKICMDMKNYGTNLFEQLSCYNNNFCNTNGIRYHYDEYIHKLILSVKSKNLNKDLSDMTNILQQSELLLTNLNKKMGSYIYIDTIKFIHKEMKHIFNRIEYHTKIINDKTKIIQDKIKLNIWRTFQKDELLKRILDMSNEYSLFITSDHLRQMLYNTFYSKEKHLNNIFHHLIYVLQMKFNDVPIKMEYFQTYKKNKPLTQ

[5] = molecular target: PfRH5 from Plasmodium falciparum strain Cam3.II (Plasmodium falciparum)
[6] = molecular target: PfRH5 from Plasmodium falciparum strain HB3 (Plasmodium falciparum)
[7] = molecular target: PfRH5 from Plasmodium falciparum strain W2-mef (Plasmodium falciparum)
[8] = molecular target: T3, PfRH5 from Plasmodium falciparum strain 7G8 (Plasmodium falciparum)
[9] = molecular target: T4, PfRH5 from Plasmodium falciparum strain Dd2 (Plasmodium falciparum)
[10] = molecular target: T2, PfRH5 from Plasmodium falciparum strain …; remark: listed apart in the source
[11] = molecular target: T3, PfRH5 from Plasmodium falciparum strain …; remark: listed apart in the source
[12] = molecular target: T1, PfRH5 from Plasmodium falciparum strain …; remark: listed apart in the source
[13] = molecular target: T4, PfRH5 from Plasmodium falciparum strain …; remark: listed apart in the source

Binder	Max growth inhibition (%) [1] [%]	Max growth inhibition (%) [2] [%]	Max growth inhibition (%) [3] [%]	Max growth inhibition (%) [4] [%]	Max growth inhibition (%) [5] [%]	Max growth inhibition (%) [6] [%]	Max growth inhibition (%) [7] [%]	Max growth inhibition (%) [8] [%]	Max growth inhibition (%) [9] [%]	Max growth inhibition (%), Chloroquine Phosphate N/A [10] [%]	Max growth inhibition (%), Chloroquine Phosphate N/A [11] [%]	Percent Maximum Growth Inhibition, mAb (6.67 µM) + AHIS (10%) [12] [%]	Percent Maximum Growth Inhibition, mAb (6.67 µM) + ANS (10%) [12] [%]	Percent Maximum Growth Inhibition, mAb (6.67 µM) + HHIS (10%) [12] [%]	Percent Maximum Growth Inhibition, mAb (6.67 µM) + HNS (10%) [12] [%]	Percent Maximum Growth Inhibition, mAb (6.67 µM) + No serum [12] [%]	Maximum growth inhibition (%) [13] [%]
B1	82.3	28.9	66	67.6	56.2	59.1	66.4	70.1	71.3	61.1	51.1	84.3	75.7	85.2	85	85.3	–
B2	74.4	25.7	61.1	63.9	47	59.4	53.6	61.2	64.7	–	–	–	–	–	–	–	56.9
B3	81.4	31.4	70.3	60.3	51.9	64.8	64.7	65.2	65.3	34.9	47.3	86.2	80.3	83.4	85.6	84.1	–
B4	81.7	17	66.9	–	52.4	62.6	67.3	66.4	64.6	58	48.9	82.5	73.2	81.9	82.4	83.9	65.7
B5	79.6	32.7	72.2	70.7	49.2	63.9	67.3	–	66	47.6	49.3	89.4	80.1	85.4	85.9	85.3	–

From patent US20210024625A1 (published 2021)
